# Test results as given in US11857697B2, “Compositions and methods for obtaining 3-dimensional lung-like epithelium and related uses thereof” (THE REGENTS OF THE UNIVERSITY OF MICHIGAN, priority 2017, dated 2024).
# Entries after “also recorded” stand apart in the source; their conditions may differ.
# What was measured:
# [1] = test system: hPSC-derived foregut spheroids / HLOs; experiment: hPSC-derived foregut spheroid / human lung organoid (HLO) culture: growth and phenotype; format: cell-based
# Procedure: Given the robustness by which 3F media supported mouse and human lung bud progenitor growth and identity, experiments sought to determine whether these culture conditions could promote a distal epithelial lung progenitor-like population from hPSCs. NKX2.1+ ventral foregut spheroids were generated as previously described (Dye et al., 2016a; 2015), and were cultured in a droplet of Matrigel and overlaid with media containing 3F (FGF7, CHIR-99021, RA). Spheroids were considered to be “day 0” on the day they were placed in Matrigel. […] Epithelial structures grew first as cystic structures over the course of 2 weeks, followed by a period of epithelial folding that occurred between weeks 3-4 (FIG. 7A; FIG. 8C-D). Around 5-6 weeks in culture, the epithelial structures began forming bud-like structures that resembled human fetal epithelial distal bud tips that underwent bifurcations (FIG. 7A-B; FIG. 8D—bottom row). HLOs were passaged by gently removing Matrigel and replating in a fresh droplet while preserving structural integrity. In this way, HLOs were able to grow for over 16 weeks in culture while retaining their original shape. HLOs could also be passaged using mechanical shear through a 27-gauge needle, followed by embedding in fresh Matrigel and 3F media (FIG. 8E). Following passage, HLOs robustly re-established many small cysts that were expanded and serially passaged every 7-10 days many times (FIG. 8F).
# The University of Michigan Human Pluripotent Stem Cell Research Oversight (hPSCRO) Committee approved all experiments using human embryonic stem cell (hESC) lines. hESC line UM63-1 (NIH registry #0277) was obtained from the University of Michigan and hESC line H9 (NIH registry #0062) was obtained from the WiCell Research Institute. ES cell lines were routinely karyotyped to ensure normal karyotype and ensure the sex of each line (H9-XX, UM63-1-XX). Cells are monitored for mycoplasma infection monthly using the MycoAlert Mycoplasma Detection Kit (Lonza). […]
# [2] = test system: e13.5 CD1 mouse epithelial lung buds; experiment: EdU incorporation quantified by flow cytometry in cultured mouse lung buds; format: cell-based; conditions: 50-100 ng/mL FGF7 versus 1-10 ng/mL, one week culture, 1 hour EdU pulse
# Procedure: Epithelial lung buds were dissected from e13.5 CD1 mice and plated in a matrigel droplet as described above. 3-4 individual buds from one mouse were placed in each droplet and were pooled to serve as a single biological replicate. Three droplets (corresponding to 3 independent biological samples) were assigned to each experimental group, receiving either 1, 10, 50 or 100 ng/mL of FGF7 for 7 days. Media was changed every 2-3 days. Cells were incubated with EdU for 1 hour and stained with the Click-It EdU Alexa Fluor 488 system (ThermoFisher Cat# C10337) according to the manufacturer's instructions. As a control, wells that received 10 ng/mL of FGF7 for 7 days were taken through the EdU steps but were not stained were used to set the gates. For analysis, lung buds were broken into a single cell suspension. 1 mL of accutase (Sigma Cat# A6964) was added to a 15 mL conical tube containing pooled epithelial buds and cells were incubated at 37 degrees Celsius with frequent visual inspection until clumps of cells were no longer visible. 3 mL of basal media (see below) was added to each tube, and cells were centrifuged at 300 g for 5 minutes at 4 degrees Celsius. The supernatant was then withdrawn, and cells were resuspended with 1 mL sterile PBS, filtered through a 70 uM strainer to remove any cell clumps and transferred to a cell sorting tube. […]
# [3] = proportion of organoids in the medium
molecule,measurement,setting,value
"Recombinant Human Fibroblast Growth Factor 7 (protein, UniProt P21781 32-194, looked up, Recombinant human growth factor from R&D systems, used at 10 ng/mL unless otherwise noted) Fibroblast growth factor 7: CNDMTPEQMATNVNCSSPERHTRSYDYMEGGDIRVRRLFCRTQWYLRIDKRGKVKGTQEMKNNYNIMEIRTVAVGIVAIKGVESEFYLAMNKEGKLYAKKECNEDCNFKELILENHYNTYASAKWTHNGGEMFVALNQKGIPVRGKKTKKEQKTAHFLPMAIT",HLO morphology after switch to FGF7 only,"[1]; 42 days 3F then 26 days FGF7 only, compared to 3F HLOs",lost the peripheral bud-like regions
same,HLOs with 'dense' phenotype,[1]; [3],90%
same,HLOs with clear epithelial phenotype,[1]; [3],5%
same,Proliferation (EdU labeled cells),[2],increased proliferation significantly; also recorded: significant increase in labeled cells
